We go through 40 sequences from the nanobody polyreactivity screen of Harvey et al. (2022).

The nature of this data set: yeast display, Sf9 membrane polyspecificity reagent, FACS + sequencing; frameworks hold sequencing errors. The method in brief: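 Galactose-induced (36–48 hours) yeast carrying a synthetic nanobody display library were exposed to 10% biotinylated, detergent-solubilized Sf9 membrane reagent at 4 °C for 1 hour. FACS followed streptavidin microbead enrichment, using low and high (top ~1%) gates for expression (anti-HA) and reagent binding (streptavidin). Colony PCR, MiSeq 2 × 250 sequencing and CDR-length filtering followed. Labels for polyreactivity reflect the gate of origin.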
Regarding “QVQLVESGGGLVQAGGSLRLSCAASGSIFLGNAMGWSRQAPGKERELVAAISSITGRTYYADSVKGRFTISRDNAKNTVYLQMNSLKPEDTAVYYCNKVKRSFIVNTDDYWGQGTQVTVSS”, the “polyreactivity (PSR sort gate)” value is recorded as “high polyreactivity”. With “QVQLVESGGGIVQAGGSLRLSCAASGFTFRTYTQGWYRQAPGKERELVAAIRSSGGGTYYADSVKGRFTISRDNAKNTVYLQMNSLKPEDTAVYYCIAVRYNSVGYDFWGQGTQVTVSS”, the “polyreactivity (PSR sort gate)” value is on record as “high polyreactivity”.

Consider “QVQLVESGGGLVQAGGSLRLSCAASGRIFYYYGMGWYRQAPGKEREFVAAISLGGARTYYADSVKGRFTISRDNAKNTVYLQMNSLKPEDTAVYDCYARGIGRSTKWSSRDYWGQGTQVTVSS”, for which the “polyreactivity (PSR sort gate)” value is reported as “high polyreactivity”. As for “QVQLVESGGGLVQAGGSLRLSCAASGYIFSRYAMGWYRPAPGKERELVAAITRSGTRTYYADSVKGRFTISRDNAKNTVYLQMNSLKPEDTAVYYCAKQYLYSSGFDYWGQGTQVTVSS”, the entry is “high polyreactivity”; as for “QVQLVESGGGLDQAGGSLRLSCAASGSTYPGNAMGWYRQAPGKERELVAAIDSSTGSTYYADSVKGRFTISRDHAKNTVYLQMNSLKPEDNAVYYCNKTSFLVKLDYWGLGTQVTVSS”, “low polyreactivity”. Regarding “QFQLEESGGGLVQAGGSLRLSCDASGSTFSYALGWYRQAPGKERELVAAITIGGRTSYADSVKGRFTISRDNAKNTVYLQMNSLKPEDTAVYYCAAEGYYPVYYYVYYGYDYWGQGTQVTVSS”, the “polyreactivity (PSR sort gate)” value is “low polyreactivity”. Consider “QVQLVESGGGLVQAGGSLRLSCAASGSAYHYAMGWYSQAPGKERELVASITWRGDTTYYADSVKGRFTISRDNAKITVYLQMNSLKPEDTAVYYCAARKFFRQGGKRYDYWGQGTQVTVSS”, for which the “polyreactivity (PSR sort gate)” value was “high polyreactivity”. As for “QVQLVESGGGLVQAGGSLRLSCAASGRTFYSYAMGWYRQAPGTERELVAAITSSGGRTYYADSVKGRFTISRDNAKNTVYLQMNSLKPEDTAVYYCAAKWITRRGGDFDYWGQGTQVTVSS”, the entry is “high polyreactivity”; as for “QVQLVESGGGLVQAGGSLRLSCAASGRIFQRYAMGWSRQAPGKERELVAPISWSVSSTYYADSVKGRFTISRDNAKNTVYLQMNSLKPEDTAVYYCNAAFHVTLGYLYREYDYWGQGTQVTVSS”, “high polyreactivity”; as for “QVQLVESGGGLVQAGGSLRLSCAASGRTFYGYAMGWSRQAPGKERELVAAISVSGGGTYYADSVKGRFTISRDNAKYTVYLQMNSLKPEDTAVYYCAAAVYERPRDYYYWGQGTQVTVSS”, “low polyreactivity”. As for “QVQLVESGGGLVQAGGSLRLSCAASGFTFHSYAMGLYRQAPGKERELVAAISPGATTYYADSVKGRFTISRENANNTVYFKLNSLKPEDTAVYYFAASYQRVRDATVYTIYDYWGQGTQVTVSS”, the “polyreactivity (PSR sort gate)” value is on record as “high polyreactivity”.

“QVQLVESGGGLVQAGGSLRLSCAASGIIFVKYAMGWYRQAPGKERELVAAINWRTGRTYYADSVKGRFTISRDNAKNTVYLQMNSLKPEDTAVYYCAADVGIVIRLGRTEESGYYWGQGTQVTVSS”: the “polyreactivity (PSR sort gate)” value was “low polyreactivity”.

Regarding “QVQLVESGAGLVQAGGSLRLSCAASGRTFIGNAMGWYRQAPGKERELVAAISSSGGNTYYADSVKGRFTISRDNAKNTVYLQMNSLKPEDTAVYYCAVEVRTFVTYGRREYYWGQGTQVTVSS”, the “polyreactivity (PSR sort gate)” value is reported as “high polyreactivity”. For “QVQLVESGGGLVQAGGSLRLSCAVRRTLSFYAMGWYRQAPGKERELVATISRSGGSTYYADSVKGRFTISRDNAKNTVYLQMNSLKPEDTAVYYCAVRWKAHYWGPIYYYWGQGTQVTVSS” the value was “high polyreactivity”; for “QVQLVESGGGLVQAGGSLRLSCAASGSTFRLYAMGWYRQAPGEERELVASITFSDSITSYADSVKGRFTISRDNAKNTVYLQMNSLKPEDTAVYYCDKDTSYENVVYTFDYDYWGQGTQVTVSS”, “low polyreactivity”; for “QEQLQEIGGRLEQAGGSLRLSCAASGYITYIGTMGWYRHAPGKEREFVATIVVGSTTNYADSVKGRFTISRDNAKNTVYLQPESGRYRGVLLRGWLLAVGKFTYWGQGTQETVSS”, “low polyreactivity”. For “QVQLVESAGGLVQAGGSLRLSCAASGSIFPGYAMGWYRQAPVKERELVATITWSGGSTYYADSVKGRFTISRDNAKNSVYLQMNILKPEDTAVYYCNADSNWYYQWNYYGLYDYWGQGTQVTVSS” the value was “low polyreactivity”; for “QVQLVESGGGLVQAGGSLRLSCAASGRNFVYNAMGWYRQAPGKERELVAAITWGGGSTYYADSVKGRFTISRDKAKNTVYLQMNSLKPEDTAVYYCAADGVRKFPNSRYDYWGQGTQVTVSS”, “low polyreactivity”.

For the sequence “QVQLVESGAGLVHAGGSLRFSCAPSGIIIYRYAMGWYRQAPGKERELVAGISQRGGNTYYADSVKGRFTISRDNEKNTVYLQMYSLKPEDTAVYYCAAPYYGTRTNNRHEYWGLGTQVTVSS”, the “polyreactivity (PSR sort gate)” value is “high polyreactivity”. In the case of “QVQLVESGGGLVQAGGSLRLSCAASGSIFGGYAMGWSRQAPGNERELVASISISGGSTYYADSVKGRFTISRDNAKNTVYLQMNRLKPEDTAGYYCATDRTTTLNSPYGDPDRDDYWGQGTQVTVSS”, the “polyreactivity (PSR sort gate)” value is reported as “low polyreactivity”. Take “QVQLVESGGGLVQAGGSLRLSCAASGSTFDSYGMGWYRQAPGKERELVGSISSRGGSTYYADSVKGRFTISRDNAKNTVYLQMNSLKPEDTAVYYCAAEWLSWFHGYGMYYWGQGTQVTVSS”: the “polyreactivity (PSR sort gate)” value is reported as “low polyreactivity”. For the sequence “QVQLVESGGGLVQAGGSLRLSCAASGSIIYRNVMGWYRQAPGKERELVAAISSNGGRTYYADSVKGRFTISRDNAKNTVYLQMNSLKPEDTAVYYCAADTYPGTYYWGQGTQVTVSS”, the “polyreactivity (PSR sort gate)” value is “high polyreactivity”. On to “QVKLVESGGVLVQAGGSLRLSCAASGSIFVYNAMGWYRQAPGKERELVAAISQRGGSTYYADSVKGRFTISRDNAKNSVYLQMNSLKPEDTAVYYCAAGPGDSGDDYWGQGSQVTVSS”, for which the “polyreactivity (PSR sort gate)” value is “low polyreactivity”. As for “QVQLVESGGGLVQAGGSLRLSCDASGSTFTRYVMGGYRQPPGKERELVAVISSSAGSTYYADSVKGRFTISRDNAKNTVYLQMNSLKPEDTAVYYCAARYSAKHYGYGYWGQGTQVTVSS”, the entry is “high polyreactivity”; as for “QVQLVESGGGLVQAGGSLRLSCAASGRTFGLNAMGWYRQATGKERELVAAITSGGSTYYADSVKGRFTISRDNAKKTVYLQMNSLKPEDTAVYYCAVTYNGDSSWPGDYWGQGTQVTVSS”, “low polyreactivity”. For “QVQLVESAAGLVQAGGSLRLSCAASGLNSSYYAMGWYRQAPGKERELVAAISRCGSTNYADSVKGRFTISRDNGKNTLYLQMNSLKPEDTAVYYCNADEYGGSTGRKGRYNYWGQGTQVTVSS” the value was “low polyreactivity”. Consider “QVQHVESGGGLVQAGGSLRLSCAASGSTSYPYAMGWYRQAPGKERELVATITSGGRTNYADSVKGRFTISRDNAKNTVYLQMNSLKPEDTAVYYCNARFYRWRSYGYDYWGQGTQVTVSS”, for which the “polyreactivity (PSR sort gate)” value was “high polyreactivity”. In the case of “QVQLVESGGGLVQAGGSLRLSCAASGRTFVRNAMGWYRQAPGKERELVAAISRGGRTNYADSVQGRFTISRDNAKNTVYLKMNSLKPEDTAVYYCATGAGYYFDYDYWGQVTQVTVSS”, the “polyreactivity (PSR sort gate)” value is “high polyreactivity”. For the sequence “QVQLVESGGGLVQAGGSLRLSCAPSGSTLFYNAMGCYRQSPGKETELVATISGGGVSTYYADSVNGRFRISRDNAKNSVYLQMYSLKPEDTAVYYCAAAGWSEGGYDYWGQGTQVTVSS”, the “polyreactivity (PSR sort gate)” value was “low polyreactivity”. As to “QVQLVESGGGLVQAGGSLRLSCAASGRIFILNTMGWYRQAPGKERELVAGISYSGSTYYADSVKGRFTISRDNAKNTVYLQMNSMKPEDTAVYYCAADYDAAWYNDGYYYWGQGTQVTVSS”, the “polyreactivity (PSR sort gate)” value is “low polyreactivity”. As for “QVQIVESGGGLVQAGGSLRLSCAASGRTFYSYAMGWYRQAPGKERELVAAIRWTGVRTYYADSVKGRFTISRDNAKNTVYLEINSLKPEDTAVYYCAVFRSSGKGYRGPRDYWGQGTQVTVSS”, the entry is “high polyreactivity”; as for “QVQLVESGGGLVQAGGSLRLSCAASGRTFGYNAMGWYRQAPGKERELVAAISWRSGGTYYADSVKGRFTISRDNANNSVYLQMISLKPEDTAVYYCARRSPHHGRDYWGQGTQVTVSS”, “low polyreactivity”. For “QVQLVESGGGLVQAGGSLRLSCAASGSTFVRYAMGWYRQAPGKERELVATISSRGGRTYYADSVKGRFTISRDNAKNTVYLQMNSLKPEDTAVYYCAADRRAAVPFGYGYWGQGTQVTVSS” the value was “high polyreactivity”; for “QVQLVESGGGLVQAGGSLRLSCAASGIIFRPYAMGWYRQAPGKERELVAAITGSGVSTYYADSVKGRFTISRDNAKNTVYLQMNCQKPEDTAVYYCAKRYNRGYHRYDYWGQGTQVTVSS”, “low polyreactivity”. Take “QVQLVESGGGLVQAGGSLRLSCAASGSIFYGYAMGWYRQAPGKEREFVAAITWSGGSTHYADSVKGRFTNSRDNAKNTVYVQMNSLKPEDTAVYYCAAPSYGNYPYRSYVWYGYWGQGTQVTVSS”: the “polyreactivity (PSR sort gate)” value is “high polyreactivity”. For “QVQLVESGGGLVQAGGSLRLSCAASGSILGGNAMGWYRQAPGKERELVAANTFSGGGTYYADSVKGRFTISRDNAKNTVYLQMKSLKPEDTAVYYCNADYKSTVFRYSGSRNYWGQGTQVTVSS” the value was “low polyreactivity”; for “QVQLVESGGGLVQAGGSLRLSCAASGRIFSPNAMGWSRQAPGKERELVAAITRGGSTNYADSVKGRFTISRDNAKYTVYLQMNSLKPEDTAVYFCAALLAKTISGRGYNSWGQGTQVTVSS”, “low polyreactivity”; for “QVQLVESGGGLVQAGGSLRLSSAASGSTFDHYAMGWYRQAPGKERELVAAITWSGGRTYYADSVKGRFTISRDNAKNTVYFQMNSLKPEDTAVYYCAARGYQIRVANYKYDSWGQGTQVTVSS”, “low polyreactivity”. For the sequence “QVHLVESGGGLVQAGGSLRLSCAASGYIFRRYAMGWYRQAPGKERELVAAISFSGGSTYYADSVKGRFTISRDNAKNSVYIQMNSLKPDDTAVYYCAGLSLLRYDYWGQGTQVTVSS”, the “polyreactivity (PSR sort gate)” value is given as “high polyreactivity”. As for “QDQLVESGGGLVQAGGSLRLTSAASGFKFEKNAMGWYRQSPGKERQLVARISRSGGSTYYADSVKGRFTISRDNAKNTVYLQMNSLKPEDTADYYCNCLHRSDSGYYYRYDYWGQGTQVTVSS”, the entry is “high polyreactivity”.
